The target in this assay is Recombinant histidine-tagged human WRN (human) (UniProt Q14191).

The results in this text go back to publication PMC2276247.

Chain of Recombinant histidine-tagged human WRN (human) (Q14191 whole entry): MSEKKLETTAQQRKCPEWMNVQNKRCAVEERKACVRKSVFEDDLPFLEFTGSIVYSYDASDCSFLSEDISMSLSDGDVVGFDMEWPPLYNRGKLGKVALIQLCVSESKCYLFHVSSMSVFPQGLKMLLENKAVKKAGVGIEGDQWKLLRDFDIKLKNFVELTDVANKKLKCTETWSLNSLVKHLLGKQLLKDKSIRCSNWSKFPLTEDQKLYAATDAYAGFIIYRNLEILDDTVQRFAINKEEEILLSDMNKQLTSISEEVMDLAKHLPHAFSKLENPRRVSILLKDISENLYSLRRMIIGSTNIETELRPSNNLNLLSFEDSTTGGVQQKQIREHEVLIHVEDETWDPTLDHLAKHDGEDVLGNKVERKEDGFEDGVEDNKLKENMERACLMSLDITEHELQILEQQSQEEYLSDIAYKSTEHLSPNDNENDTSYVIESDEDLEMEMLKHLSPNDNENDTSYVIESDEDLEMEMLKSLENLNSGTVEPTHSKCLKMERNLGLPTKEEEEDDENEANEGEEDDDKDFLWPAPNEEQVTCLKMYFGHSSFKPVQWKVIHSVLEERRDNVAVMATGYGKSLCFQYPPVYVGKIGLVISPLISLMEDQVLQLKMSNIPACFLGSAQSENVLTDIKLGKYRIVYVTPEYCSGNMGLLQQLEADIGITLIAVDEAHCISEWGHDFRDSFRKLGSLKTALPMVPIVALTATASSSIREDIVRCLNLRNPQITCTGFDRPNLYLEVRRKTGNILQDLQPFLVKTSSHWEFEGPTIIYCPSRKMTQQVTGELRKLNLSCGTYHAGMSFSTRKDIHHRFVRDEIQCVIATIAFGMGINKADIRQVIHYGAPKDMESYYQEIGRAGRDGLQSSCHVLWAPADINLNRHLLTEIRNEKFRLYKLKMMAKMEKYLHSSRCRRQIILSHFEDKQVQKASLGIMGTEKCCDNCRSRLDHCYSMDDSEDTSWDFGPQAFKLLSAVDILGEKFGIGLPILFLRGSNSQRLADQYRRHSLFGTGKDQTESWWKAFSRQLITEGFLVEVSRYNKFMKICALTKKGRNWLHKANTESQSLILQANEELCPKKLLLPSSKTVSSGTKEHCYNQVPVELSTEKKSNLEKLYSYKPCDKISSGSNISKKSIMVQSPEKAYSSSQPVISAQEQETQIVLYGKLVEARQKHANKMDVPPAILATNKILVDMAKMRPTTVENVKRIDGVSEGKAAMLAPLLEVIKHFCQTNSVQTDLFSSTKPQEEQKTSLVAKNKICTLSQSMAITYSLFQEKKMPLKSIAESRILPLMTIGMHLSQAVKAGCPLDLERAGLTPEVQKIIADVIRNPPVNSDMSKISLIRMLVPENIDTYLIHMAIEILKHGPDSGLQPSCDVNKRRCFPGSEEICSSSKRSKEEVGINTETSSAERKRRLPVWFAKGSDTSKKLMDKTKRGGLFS

Turning to “recombinant human p300 (histone acetyltransferase enzyme p300), Q09472 1-2414”, the WRN helicase activity on a 22 bp forked duplex with p300 in the absence of acetyl CoA, at the highest WRN concentration was 2 fold.
